Experimental data as given in US20020028202A1 (Biogen, published 2002).
Substitutions are numbered along the chain they refer to.

Columns and labels:
[1] = target: T1, human gc chain (common gamma chain of cytokine receptors) on the cell surface (human, UniProt P31785 23-369); test: cell-based or functional assay
T1 sequence (looked up): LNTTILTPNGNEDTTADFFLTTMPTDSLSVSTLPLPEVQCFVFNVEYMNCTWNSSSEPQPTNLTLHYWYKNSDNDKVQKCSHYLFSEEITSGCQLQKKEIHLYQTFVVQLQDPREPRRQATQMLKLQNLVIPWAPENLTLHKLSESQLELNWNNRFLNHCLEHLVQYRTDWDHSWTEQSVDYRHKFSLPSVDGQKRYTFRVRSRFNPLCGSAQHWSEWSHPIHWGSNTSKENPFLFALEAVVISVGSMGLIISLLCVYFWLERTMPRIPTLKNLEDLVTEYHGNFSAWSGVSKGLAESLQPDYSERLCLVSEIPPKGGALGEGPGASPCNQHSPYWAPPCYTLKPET

[2] = target: T2, human gc chain mutant, FNV replaced by Ala (Domain 1 Loop AB), myc-tagged, on COS-7 cells (human, UniProt P31785 23-369); test: staining of transfected COS-7 cells, FACS
T2 construct: whole, on cells; not shown: 9 amino acid myc tag at the 5' end of the construct
T2 sequence (looked up): T1 sequence (looked up) with F43A, N44A, V45A

[3] = target: T3, human gc chain mutant, ESQ replaced by Ala (Domain 2 Loop AB), myc-tagged, on COS-7 cells (human, UniProt P31785 23-369); test: staining of transfected COS-7 cells, FACS
T3 construct: whole, on cells; not shown: 9 amino acid myc tag at the 5' end of the construct
T3 sequence (looked up): T1 sequence (looked up) with E145A, S146A, Q147A

[4] = target: T4, human gc chain mutant, RFL replaced by Ala (Domain 2 Loop BC), myc-tagged, on COS-7 cells (human, UniProt P31785 23-369); test: staining of transfected COS-7 cells, FACS
T4 construct: whole, on cells; not shown: 9 amino acid myc tag at the 5' end of the construct
T4 sequence (looked up): T1 sequence (looked up) with R155A, F156A, L157A

[5] = target: T5, human gc chain mutant, PL replaced by Ala (Domain 2 Loop FQ), myc-tagged, on COS-7 cells (human, UniProt P31785 23-369); test: staining of transfected COS-7 cells, FACS
T5 construct: whole, on cells; not shown: 9 amino acid myc tag at the 5' end of the construct
T5 sequence (looked up): T1 sequence (looked up) with P207A, L208A

inhibition of IL-2-induced T cell proliferation, 73 pM IL-2, mAb at 100 ug/ml, relative to MOPC21 [1]: 51% | inhibition of IL-2-induced T cell proliferation, 219 pM IL-2, mAb at 100 ug/ml, relative to MOPC21 [1]: 44% | % binding to mutant gc chain/wildtype gc chain [2]: 9% | % binding to mutant gc chain/wildtype gc chain [3]: 75% | % binding to mutant gc chain/wildtype gc chain [4]: 89% | % binding to mutant gc chain/wildtype gc chain [5]: 86%
B1: CP.B8 monoclonal antibody (murine anti-human gc chain, hybridoma ATCC HB-12107) (antibody, V domains shown)
VH: LQESGPGLVAPSQSLSITCTVSGFSLTSYGVHWVRQPPGKGLEWLGVIWAGGSTNYNSALMSRLNINRDNSKSQIFLKMNSLQTDDTAIYYCAREGSTVDSMDYWGQGTTVT
VL: DIVMTQSHKFMSTSVGDSITITCKASQDVTTAVAWYQQKPGQSPKLLIYWASTRHTGVPDRFTGSGSGTDYTLTISSVQAEDLALYYCQQHYITPWTFGGGTKLEI
notes: Used unconjugated and biotin-conjugated; also called CP.B8 mAb; mAb CP.B8
